Test results published in article PMC5764988.

Molecular target: MagD, the Type II alpha-2-macroglobulin from Pseudomonas aeruginosa (Pseudomonas aeruginosa) (UniProt Q9HVT2)
Assay: AUC; sedimentation velocity, 35,000 rpm, 20 °C, absorbance at 280 nm; 0.25, 0.5 and 1 mg/mL; 25 mM HEPES pH 7.5, 100 mM NaCl; c(s) analysis with Sedfit; co-purified complexes after analytical gel filtration

| Substance | stoichiometry N |
| --- | --- |
| MagA (natural protein) | 1 |
| MagB (natural protein) | 1 |
| MagF (natural protein) | 1 |
